Legend:
Assay in all cases: primer extension with trap
Details in all cases: Primer extension: 50 mM Tris-HCl pH 8.0, 80 mM KCl, 6 mM MgCl2, 1 mM DTT, 0.1 mg/ml BSA, room temperature, 1 nM duplex; filter binding: Tris-HCl pH 8.0, 80 mM …
[1] = target: T1, AMV RT (avian myeloblastosis virus) (UniProt Q83133+Q83133)
T1 sequence 1: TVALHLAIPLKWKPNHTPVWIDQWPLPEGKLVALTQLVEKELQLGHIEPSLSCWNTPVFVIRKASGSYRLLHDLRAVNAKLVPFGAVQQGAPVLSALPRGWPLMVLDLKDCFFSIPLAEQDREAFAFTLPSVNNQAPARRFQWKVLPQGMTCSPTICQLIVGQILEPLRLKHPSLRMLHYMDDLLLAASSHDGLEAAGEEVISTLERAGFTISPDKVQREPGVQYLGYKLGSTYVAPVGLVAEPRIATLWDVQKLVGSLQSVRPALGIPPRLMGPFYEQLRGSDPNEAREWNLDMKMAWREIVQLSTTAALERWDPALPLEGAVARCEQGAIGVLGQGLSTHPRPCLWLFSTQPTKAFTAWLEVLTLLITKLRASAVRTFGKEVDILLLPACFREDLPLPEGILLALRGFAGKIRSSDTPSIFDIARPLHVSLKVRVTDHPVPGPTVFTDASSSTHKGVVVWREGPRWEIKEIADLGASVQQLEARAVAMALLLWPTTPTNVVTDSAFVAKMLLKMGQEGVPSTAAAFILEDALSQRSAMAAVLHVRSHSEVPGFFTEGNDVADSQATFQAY
T1 sequence 2: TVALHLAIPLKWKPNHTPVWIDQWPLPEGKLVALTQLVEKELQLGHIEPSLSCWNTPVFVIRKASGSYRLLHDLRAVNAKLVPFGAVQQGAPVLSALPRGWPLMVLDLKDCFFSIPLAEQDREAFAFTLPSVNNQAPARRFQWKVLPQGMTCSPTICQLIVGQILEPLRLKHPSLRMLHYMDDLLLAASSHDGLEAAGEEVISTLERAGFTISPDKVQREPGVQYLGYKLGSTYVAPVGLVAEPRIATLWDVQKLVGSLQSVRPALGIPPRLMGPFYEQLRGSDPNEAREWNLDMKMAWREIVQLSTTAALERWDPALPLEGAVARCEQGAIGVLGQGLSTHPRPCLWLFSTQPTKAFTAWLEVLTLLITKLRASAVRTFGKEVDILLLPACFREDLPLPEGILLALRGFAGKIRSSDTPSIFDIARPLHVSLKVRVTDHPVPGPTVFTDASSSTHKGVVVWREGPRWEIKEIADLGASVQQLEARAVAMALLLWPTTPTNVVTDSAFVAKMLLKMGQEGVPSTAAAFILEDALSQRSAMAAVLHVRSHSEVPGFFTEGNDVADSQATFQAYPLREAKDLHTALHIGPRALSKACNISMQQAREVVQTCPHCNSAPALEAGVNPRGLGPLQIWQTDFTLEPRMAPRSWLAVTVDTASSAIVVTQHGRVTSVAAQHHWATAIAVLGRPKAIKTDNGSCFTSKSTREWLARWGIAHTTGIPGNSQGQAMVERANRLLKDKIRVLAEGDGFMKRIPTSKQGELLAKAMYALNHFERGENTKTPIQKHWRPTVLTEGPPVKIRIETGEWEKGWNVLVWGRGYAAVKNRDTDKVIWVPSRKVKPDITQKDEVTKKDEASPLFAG

HIV RT (HIV) = HIV RT (HIV) (UniProt P04585+P04585)
[2] = target: MuLV RT (Moloney murine leukemia virus) (UniProt P03355)
[3] = target: T2, Ty3 RT (Ty3 retrotransposon) (UniProt Q99315)
T2 sequence: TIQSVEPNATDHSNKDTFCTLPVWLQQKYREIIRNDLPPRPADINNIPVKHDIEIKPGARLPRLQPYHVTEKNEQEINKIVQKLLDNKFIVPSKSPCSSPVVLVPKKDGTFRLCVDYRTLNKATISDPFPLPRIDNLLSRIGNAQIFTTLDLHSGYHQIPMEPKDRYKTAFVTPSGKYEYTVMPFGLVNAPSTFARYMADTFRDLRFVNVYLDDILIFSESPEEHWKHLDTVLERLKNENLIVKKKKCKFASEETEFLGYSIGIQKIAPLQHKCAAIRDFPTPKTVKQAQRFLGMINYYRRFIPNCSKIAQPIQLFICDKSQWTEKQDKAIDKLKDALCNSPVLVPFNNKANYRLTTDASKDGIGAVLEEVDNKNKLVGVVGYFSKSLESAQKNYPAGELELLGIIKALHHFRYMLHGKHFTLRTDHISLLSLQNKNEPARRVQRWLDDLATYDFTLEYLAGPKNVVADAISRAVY

For Random DNA, the Kd [1] was 20 nM, the Kd (HIV RT (HIV)) was 106 nM and the Kd [2] was 116 nM. For the same substance, the Kd [3] was 62 nM.

Source: paper PMC3407194
